Results reported in US20230272055A1 (Incyte, published 2023).
Positions count from the first letter of the chain named. Names and notes keep the numbering of the source.

B1: anti-mutCALR antibody clone 32 (antibody, human IgG1, lambda, V domains shown)
VH: QVQLVQSGAEVKKPGATVKISCKVSGYSFTDYFIHWVQQAPGKGLAWVGLVDPEDGETIYAEKFQGRVTITADTSTDTAYMELSSLRSEDTAVYYCATPGGILTDPDAFDIWGQGTMVTVSS
VL: QSALTQPASVSGSPGQSITISCTGTSSDVGGYNYVSWYQQHPGKAPKLMIYEVSNRPSGVSNRFSGSKSGNTASLTISGLQAEDEADYYCSSYTSSSTPYVFGTGTKVTVLG
B2: anti-mutCALR antibody clone 31 (antibody, human IgG1, lambda, V domains shown)
VH: B1 VH
VL: QSALTQPASVSGSPGQSVTISCTGTSSDVGGYNYVSWYQHHPGKAPKLMIYDVNKRPSGVPDRFSGSKSGNTASLTISGLQAEDEADYYCSSYIPSSTRWVFGGGTKLTVLG
B3: anti-mutCALR antibody clone 33 (antibody, human IgG1, lambda, V domains shown)
VH: B1 VH
VL: B2 VL with A8R, T23A, S26G, Y34H
B4: anti-mutCALR antibody clone 34 (antibody, human IgG1, lambda, V domains shown)
VH: B1 VH
VL: QSALTQPASVSGSPGQSITISCTGTSSDVGGYNYVSWYQQHPGKAPKLMIYEVSNRPSGVSNRFSGSKSGNTASLTISGLQAEDEADYYCSSYTSSSTYVFGTGTKVTVLG
B5: anti-mutCALR antibody clone 65 (antibody, human IgG1, lambda, N297A, V domains shown)
VH: EVQLVQSGAEVKKPGASVKVSCKVSGYTLTELSMQWVRQAPGKGLEWMGGFDPDDGETMYAEKFQGRLTVTEDTSTDTVYMELRSLTSEDTALYFCATSPGYDFFDYWGQGTLVTVSS
VL: SYVLTQPPSVSVAPGKTARITCTGTSSDVGGYNYVSWYQQKPGQAPVLVVYEVSNRPSGIPERFSGSNSGNTATLTISRVEAGDEADYYCQVWDSSNDLLIFGGGTKLTVLG
notes: human IgG1 N297A variant of clone 6
B6: anti-mutCALR antibody clone 74 (antibody, human IgG1, lambda, N297A, V domains shown)
VH: B5 VH with G56A, R84S, T87R, L93V
VL: B5 VL
notes: as for B5
B7: anti-mutCALR antibody clone 162 (antibody, human IgG1, lambda, N297A)
heavy: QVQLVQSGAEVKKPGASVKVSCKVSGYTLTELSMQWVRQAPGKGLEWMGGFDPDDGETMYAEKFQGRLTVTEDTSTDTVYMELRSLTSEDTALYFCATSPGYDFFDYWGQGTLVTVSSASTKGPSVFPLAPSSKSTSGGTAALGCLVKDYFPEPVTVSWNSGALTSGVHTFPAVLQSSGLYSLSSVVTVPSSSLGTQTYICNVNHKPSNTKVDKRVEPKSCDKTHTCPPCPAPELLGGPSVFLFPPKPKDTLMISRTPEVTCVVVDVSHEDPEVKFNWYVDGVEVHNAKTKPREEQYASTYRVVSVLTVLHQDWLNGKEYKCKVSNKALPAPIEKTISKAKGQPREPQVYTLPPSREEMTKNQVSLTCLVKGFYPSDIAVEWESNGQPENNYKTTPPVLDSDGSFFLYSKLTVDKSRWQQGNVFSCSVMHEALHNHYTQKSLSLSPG
light: SYVLTQPPSVSVAPGKTARITCGGDNIGSKSVHWYQQKPGQAPVLVVYDDSDRPSGIPERFSGSNSGNTATLTISRVEAGDEADYYCQVWDSSNDLLIFGGGTKLTVLGQPKAAPSVTLFPPSSEELQANKATLVCLISDFYPGAVTVAWKADSSPVKAGVETTTPSKQSNNKYAASSYLSLTPEQWKSHRSYSCQVTHEGSTVEKTVAPTECS
notes: human IgG1 N297A variant of clone 15
B8: anti-mutCALR antibody clone 42 (antibody, human IgG1, lambda, V domains shown)
VH: EVQLVQSGAEVKKPGASVKVSCKVSGYTLTELSMHWVRQAPGKGLEWMGLVDPEDGETIYAQKFQGRVTMTEDTSTDTAYMELSSLRSEDTAVYYCAREEWSGDGDDAFDIWGQGTMVTVSS
VL: QSVLTQPPSVSAAPGQKVTISCSGSSSNIGSYSVSWYQQLPGTAPKLLIYDDNKRPSGIPDRFSGSNSGTSATLSITGLQTGDEADYYCGTWDSSLSAWVFGGGTKLTVLG
notes: human IgG1; group 4
B9: anti-mutCALR antibody clone 48 (antibody, human IgG1, lambda, V domains shown)
VH: EVQLVQSGAEVKKPGSSVKVSCKASGGTFSSYAISWVRQAPGQGLEWMGGIIPIFGTANYAQKFQGRVTITADESTSTAYMELSSLRSEDTAVYYCASSPLRGSGWYWHYYYGMDVWGQGTTVTVSS
VL: SYVLTQPPSVSVAPGKTARITCGGNNIGSKSVHWYQQKPGQAPVLVIYQDRKRPSGIPERFSGSNSGNTATLTISGTQAMDEADYYCQAWDSSTAVFGGGTKLTVLG
B10: anti-mutCALR antibody clone 43 (antibody, human IgG1, lambda, V domains shown)
VH: B9 VH with S16A
VL: not shown
B11: anti-mutCALR antibody clone 44 (antibody, human IgG1, lambda, V domains shown)
VH: B9 VH
VL: B9 VL with V12A, T21S, G28R, P39A, R51S, S93N, A95V
B12: anti-mutCALR antibody clone 45 (antibody, human IgG1, lambda, V domains shown)
VH: B9 VH
VL: SYVLTQPLSVSVAPGQTARITCGGNNIGRKSVHWYQQKPGQAPVLVIYRDSNRPSGIPERFSGSNSGNTATLTISRAQAGDEADYYCQVWDSSTVVFGGGTKLTVLG
B13: anti-mutCALR antibody clone 46 (antibody, human IgG1, lambda, V domains shown)
VH: B9 VH with E1Q
VL: B9 VL with V3E, G28R, I47V, R51S, A89V
B14: anti-mutCALR antibody clone 47 (antibody, human IgG1, lambda, V domains shown)
VH: B9 VH
VL: B12 VL with V3E, L8P, Q16K, N26K, R29T
B15: anti-mutCALR antibody clone 50 (antibody, human IgG1, lambda, V domains shown)
VH: B9 VH with E1Q, V2M
VL: B9 VL with S29T, A42S, A89V, A95E
B16: anti-mutCALR antibody clone 51 (antibody, human IgG1, lambda, V domains shown)
VH: B9 VH
VL: B9 VL with V3E, N26K, S29T, R51S, D91G, A95V
B17: anti-mutCALR antibody clone 49 (antibody, human IgG1, lambda, V domains shown)
VH: B9 VH
VL: SYELTQPPSVSVAPGKTARITCGGNNIRAKHVHWYQQKPGQSPVLVIYQDSKRPSGIPERFSGSNSGSTATLTISRVEAGDEADYYCQVWDSSTVVFGGGTKLTVLG
B18: anti-mutCALR antibody clone 52 (antibody, human IgG1, kappa, V domains shown)
VH: EVQLVQSGAEVKKPGASVKVSCKVSGYTLTELSMHWVRQAPGKGLEWMGLVDPEDGETIYAEKFQGRVTITADTSTDTAYMELSSPRSEDTAVYYCATTIGDDYFDYWGQGTLVTVSS
VL: not shown
B19: anti-mutCALR antibody clone 53 (antibody, human IgG1, lambda, V domains shown)
VH: QVQLVQSGAEVKKPGASVKVSCKVSGYTLTELSMHWVRQAPGKGLEWMGGFDPEDGETIYAQKFQGRVTMTEDTSTDTAYMELSSLRSEDTAVYYCATDIQGLAEFDYWGQGTLVTVSS
VL: QSALTQPRSVSGSPGQSVTISCTGTNTDVGAYIDVSWYQQHPGKAPKLIIYDVSKWPSGVPDRFSGSKSGNTASLTISGLQAEDEADYYCCSYAGNHSFSFGGGTKVTVLG
notes: human IgG1; group 13

Target: T1, Human Type 1 mutCALR (human)
T1 chain: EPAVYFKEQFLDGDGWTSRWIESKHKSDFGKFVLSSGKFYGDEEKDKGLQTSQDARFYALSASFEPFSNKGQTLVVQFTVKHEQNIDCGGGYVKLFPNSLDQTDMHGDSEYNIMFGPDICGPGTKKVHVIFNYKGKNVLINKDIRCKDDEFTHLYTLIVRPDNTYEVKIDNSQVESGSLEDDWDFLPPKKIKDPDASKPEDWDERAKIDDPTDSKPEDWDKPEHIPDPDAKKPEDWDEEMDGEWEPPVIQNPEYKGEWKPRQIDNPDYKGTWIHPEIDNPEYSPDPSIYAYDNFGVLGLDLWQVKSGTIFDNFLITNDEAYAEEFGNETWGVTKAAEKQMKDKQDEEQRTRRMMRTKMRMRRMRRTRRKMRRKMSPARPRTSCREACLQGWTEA
Assay: cell-based or functional assay
With B1 the “IC50 of inhibition of cell proliferation (Ba/F3 cells with MPL and mutCALR Type 1)” value was 0.225 µg/mL.
In the case of B2, the “IC50 of inhibition of cell proliferation (Ba/F3 cells with MPL and mutCALR Type 1)” value is reported as 13 µg/mL.
B3 was tested, and the “IC50 of inhibition of cell proliferation (Ba/F3 cells with MPL and mutCALR Type 1)” value was 16.9 µg/mL.
B4 was tested, and the “IC50 of inhibition of cell proliferation (Ba/F3 cells with MPL and mutCALR Type 1)” value was 0.0593 µg/mL.

These binders were tested against T2, Recombinant MBP-mutCALR Type 2 fusion protein (human) (assay: SPR, IgG captured, 1:1 fit, Exp. 3).
T2 construct: custom made at Cepter
Method: Experiment 2: Recombinant MBP-mutCALR Type 1 fusion protein was custom made at Cepter (cepterbiopartners.com). Data for the interaction of antibodies with recombinant mutCALR protein were collected at 25° C. on a Biacore 8K instrument (Cytiva, Marlborough, Mass.), and all reagents were obtained from Cytiva unless otherwise specified. The experiments were conducted using Tris-buffered saline (pH 7.2), 0.005% Surfactant P20, 1 mM CaCl₂) as running buffer. To prepare the capture surfaces, anti-human IgG (Fc) antibodies (Product #29234600) was amine-coupled onto a CM4 chip (Product #BR100534) under standard conditions using an Amine Coupling Kit (Product #BR100050). […] The kinetics parameters were obtained by applying 1:1 binding model to fit the data from multiple-cycle injection experiments using Biacore Insight Evaluation software.
Recombinant MBP-mutCALR Type 2 fusion protein was custom made at Cepter (cepterbiopartners.com). Data for the interaction of antibodies with recombinant MBP-mutCALR Type 2 fusion protein were collected as described in Experiment 2. The chip used was a Biacore Series S Sensor Chip CM4 with anti-huFc immobilized onto the chip surface.
B5 showed a Kd of 6.35 nM, a koff of 0.00424 s⁻¹ and a kon of 668000 M⁻¹ s⁻¹.
Work on B6 yielded a Kd of 6.78 nM, a koff of 0.00579 s⁻¹ and a kon of 854000 M⁻¹ s⁻¹.
In the case of B7, the Kd is reported as 11.2 nM, the koff is reported as 0.00682 s⁻¹ and the kon is reported as 607000 M⁻¹ s⁻¹.

What follows are binders tested against T3, Recombinant MBP-mutCALR Type 1 fusion protein (human) (assay: SPR, IgG captured, 1:1 fit, Exp. 2).
T3 construct: custom made at Cepter; also called recombinant mutCALR protein
Procedure, shortened: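 Antibodies captured via amine-coupled anti-human IgG (Fc) on a CM4 chip; recombinant MBP-mutCALR Type 1 fusion protein as analyte. Run at 25 °C in Tris-buffered saline pH 7.2, 0.005% P20, 1 mM CaCl₂. Multiple-cycle kinetics fitted to a 1:1 binding model.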
B5 was tested, and the Kd was 0.502 nM, the koff was 0.00231 s⁻¹ and the kon was 4.6e+06 M⁻¹ s⁻¹.
B6 was tested, and the Kd was 1.19 nM, the koff was 0.00153 s⁻¹ and the kon was 1.29e+06 M⁻¹ s⁻¹.

Each binder was assayed against MBP protein (UniProt P0AEX9 27-392 = MBP) (assay: SPR (Biacore 8K), antibody captured on anti-human IgG (Fc), MBP injected).
B8: no binding (tested: 250 nM).
B9: no binding (tested: 250 nM).
B10: no binding (tested: 250 nM).
B11: no binding (tested: 250 nM).
B12: no binding (tested: 250 nM).
B13: no binding (tested: 250 nM).
B14: no binding (tested: 250 nM).
B15: no binding (tested: 250 nM).
B16: no binding (tested: 250 nM).
B17: no binding (tested: 250 nM).
B18: no binding (tested: 250 nM).
B19: no binding (tested: 250 nM).

Target: T1, Human Type 1 mutCALR
Assay: cell-based or functional assay
Remark: another data set of the same source
B1 was tested, and the “Log IC50 of inhibition of cell proliferation, antibody + ruxolitinib (Ba/F3-TPOR/mutCALR type 1 cells); extrapolated from fitted curve” value was -0.586 Log IC50 (µg/mL) and the “Log IC50 of inhibition of cell proliferation, antibody alone (Ba/F3-TPOR/mutCALR type 1 cells); extrapolated from fitted curve” value was 0.18 Log IC50 (µg/mL).
